Measured values taken from PMC4434323.

Experiments:
[1] = target: T1, daf-12 (F11A1.3) (Caenorhabditis elegans) (UniProt G5EFF5)
T1 sequence: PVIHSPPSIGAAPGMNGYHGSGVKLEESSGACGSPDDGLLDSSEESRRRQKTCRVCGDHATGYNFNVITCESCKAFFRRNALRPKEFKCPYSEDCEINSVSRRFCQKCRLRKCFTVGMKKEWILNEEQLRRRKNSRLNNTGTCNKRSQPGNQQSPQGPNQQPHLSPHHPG

[2] = target: T2, nhr-5 (Y73F8A.21) (Caenorhabditis elegans) (UniProt Q9NA51)
T2 sequence: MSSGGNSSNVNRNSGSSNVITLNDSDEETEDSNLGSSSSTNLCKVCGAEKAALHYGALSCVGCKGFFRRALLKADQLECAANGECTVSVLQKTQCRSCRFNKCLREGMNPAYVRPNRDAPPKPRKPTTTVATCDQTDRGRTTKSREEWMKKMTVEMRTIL

[3] = target: egl-13 (T22B7.1) (Caenorhabditis elegans) (UniProt Q23045)
Chain of egl-13 (T22B7.1) (Caenorhabditis elegans) (Q23045 279-447): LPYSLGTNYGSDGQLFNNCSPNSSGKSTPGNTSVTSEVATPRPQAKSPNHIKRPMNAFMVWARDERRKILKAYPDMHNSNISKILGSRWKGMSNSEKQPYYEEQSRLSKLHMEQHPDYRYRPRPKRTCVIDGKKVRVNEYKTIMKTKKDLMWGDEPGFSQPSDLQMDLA

[4] = target: T3, daf-19 (F33H1.1) (Caenorhabditis elegans) (UniProt Q09555)
T3 sequence: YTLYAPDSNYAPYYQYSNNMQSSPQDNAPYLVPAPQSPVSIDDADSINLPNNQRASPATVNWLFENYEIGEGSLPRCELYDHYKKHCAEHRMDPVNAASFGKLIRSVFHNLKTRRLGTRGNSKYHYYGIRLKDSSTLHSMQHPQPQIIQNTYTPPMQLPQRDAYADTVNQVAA

[5] = tested on: scrt-1 (C55C2.1) (Caenorhabditis elegans)
Chain of scrt-1 (C55C2.1) (Caenorhabditis elegans) (chain, as listed by the source): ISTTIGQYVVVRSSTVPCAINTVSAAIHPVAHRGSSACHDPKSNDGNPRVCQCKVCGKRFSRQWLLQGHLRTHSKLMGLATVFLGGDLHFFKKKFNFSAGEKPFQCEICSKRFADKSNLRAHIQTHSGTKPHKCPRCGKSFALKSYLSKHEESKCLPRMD

[6] = target: T4, mnm-2 (C10A4.8) (Caenorhabditis elegans) (UniProt Q17895)
T4 sequence: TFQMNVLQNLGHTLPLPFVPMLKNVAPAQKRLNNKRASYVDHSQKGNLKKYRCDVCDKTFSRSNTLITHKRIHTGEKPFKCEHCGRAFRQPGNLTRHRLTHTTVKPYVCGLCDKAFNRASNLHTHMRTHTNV

[7] = target: T5, elt-7 (C18G1.2) (Caenorhabditis elegans) (UniProt O61924)
T5 sequence: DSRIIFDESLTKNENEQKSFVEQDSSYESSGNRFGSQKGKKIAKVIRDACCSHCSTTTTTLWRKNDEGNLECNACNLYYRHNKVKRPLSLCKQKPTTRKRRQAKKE

[8] = target: T6, tbx-33 (Y66A7A.8) (Caenorhabditis elegans) (UniProt O45291)
T6 sequence: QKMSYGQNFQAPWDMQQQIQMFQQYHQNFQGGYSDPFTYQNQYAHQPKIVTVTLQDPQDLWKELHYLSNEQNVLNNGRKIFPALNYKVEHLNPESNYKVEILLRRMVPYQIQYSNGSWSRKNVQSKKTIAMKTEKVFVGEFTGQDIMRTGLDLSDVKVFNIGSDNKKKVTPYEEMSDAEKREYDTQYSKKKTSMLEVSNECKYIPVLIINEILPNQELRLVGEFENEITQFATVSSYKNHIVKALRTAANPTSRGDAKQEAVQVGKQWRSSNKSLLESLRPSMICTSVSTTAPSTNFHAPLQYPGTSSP

[9] = target: T7, elt-6 (F52C12.5) (Caenorhabditis elegans) (UniProt G5EGN3)
T7 sequence: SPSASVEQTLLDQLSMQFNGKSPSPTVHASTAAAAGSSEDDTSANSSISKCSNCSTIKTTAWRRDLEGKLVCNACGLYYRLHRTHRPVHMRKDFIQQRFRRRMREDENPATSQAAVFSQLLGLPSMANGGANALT

How did the binding signal (PBM E-score (-0.5 to 0.5)) [1] turn out when “AAGTACAC (double strand) [8-mer AAGTACAC]” was run?
The binding signal (PBM E-score (-0.5 to 0.5)) was 0.492.

And the binding signal (PBM E-score (-0.5 to 0.5)) [2]?
Its binding signal (PBM E-score (-0.5 to 0.5)) is 0.457.

With “GAACAATA (double strand) [8-mer GAACAATA]” as the sequence, how does the binding signal (PBM E-score (-0.5 to 0.5)) [3] read?
The binding signal (PBM E-score (-0.5 to 0.5)) was 0.478.

With “CTAGCAAC (double strand) [8-mer CTAGCAAC]” as the sequence, how does the binding signal (PBM E-score (-0.5 to 0.5)) [4] read?
The binding signal (PBM E-score (-0.5 to 0.5)) was 0.484.

For “AGAACAAT (double strand) [8-mer AGAACAAT]”, which binding signal (PBM E-score (-0.5 to 0.5)) [3] is on record?
Its binding signal (PBM E-score (-0.5 to 0.5)) is 0.469.

Which binding signal (PBM E-score (-0.5 to 0.5)) [3] does the source give for “AAACAATA (double strand) [8-mer AAACAATA]” here?
The binding signal (PBM E-score (-0.5 to 0.5)) was 0.469.

How did the binding signal (PBM E-score (-0.5 to 0.5)) [2] turn out when “AAAGTACG (double strand) [8-mer AAAGTACG]” was run?
Its binding signal (PBM E-score (-0.5 to 0.5)) is 0.462.

“AACCACTT (double strand) [8-mer AACCACTT]” was tested. Which binding signal (PBM E-score (-0.5 to 0.5)) [5] did it give?
Its binding signal (PBM E-score (-0.5 to 0.5)) is 0.476.

“AGTACACT (double strand) [8-mer AGTACACT]” was tested. Which binding signal (PBM E-score (-0.5 to 0.5)) [2] did it give?
The binding signal (PBM E-score (-0.5 to 0.5)) was 0.454.

For “GTAGCAAC (double strand) [8-mer GTAGCAAC]”, which binding signal (PBM E-score (-0.5 to 0.5)) [4] is on record?
Its binding signal (PBM E-score (-0.5 to 0.5)) is 0.46.

For “ATAACAAT (double strand) [8-mer ATAACAAT]”, which binding signal (PBM E-score (-0.5 to 0.5)) [3] is on record?
Its binding signal (PBM E-score (-0.5 to 0.5)) is 0.471.

For “GCCGTTCC (double strand) [8-mer GCCGTTCC]”, which binding signal (PBM E-score (-0.5 to 0.5)) [6] is on record?
Its binding signal (PBM E-score (-0.5 to 0.5)) is 0.469.

“TATGATAA (double strand) [8-mer TATGATAA]” was tested. Which binding signal (PBM E-score (-0.5 to 0.5)) [7] did it give?
Its binding signal (PBM E-score (-0.5 to 0.5)) is 0.457.

“AACAATAA (double strand) [8-mer AACAATAA]” was tested. Which binding signal (PBM E-score (-0.5 to 0.5)) [3] did it give?
Its binding signal (PBM E-score (-0.5 to 0.5)) is 0.462.

How did the binding signal (PBM E-score (-0.5 to 0.5)) [2] turn out when “AAAGTTCA (double strand) [8-mer AAAGTTCA]” was run?
Its binding signal (PBM E-score (-0.5 to 0.5)) is 0.46.

Which binding signal (PBM E-score (-0.5 to 0.5)) [8] does the source give for “ATCGCCAC (double strand) [8-mer ATCGCCAC]” here?
The binding signal (PBM E-score (-0.5 to 0.5)) was 0.49.

With “GCGCATCC (double strand) [8-mer GCGCATCC]” as the sequence, how does the binding signal (PBM E-score (-0.5 to 0.5)) [6] read?
Its binding signal (PBM E-score (-0.5 to 0.5)) is 0.487.

For “ATGGCAAC (double strand) [8-mer ATGGCAAC]”, which binding signal (PBM E-score (-0.5 to 0.5)) [4] is on record?
Its binding signal (PBM E-score (-0.5 to 0.5)) is 0.468.

Which results are given for “AGTGCACT (double strand) [8-mer AGTGCACT]”?
binding signal (PBM E-score (-0.5 to 0.5)) [1]: 0.497; binding signal (PBM E-score (-0.5 to 0.5)) [2]: 0.456

For “GATGCGCC (double strand) [8-mer GATGCGCC]”, which binding signal (PBM E-score (-0.5 to 0.5)) [6] is on record?
Its binding signal (PBM E-score (-0.5 to 0.5)) is 0.464.

For “GCACATCC (double strand) [8-mer GCACATCC]”, which binding signal (PBM E-score (-0.5 to 0.5)) [6] is on record?
The binding signal (PBM E-score (-0.5 to 0.5)) was 0.46.

For “GAGTACAC (double strand) [8-mer GAGTACAC]”, which binding signal (PBM E-score (-0.5 to 0.5)) [2] is on record?
The binding signal (PBM E-score (-0.5 to 0.5)) was 0.461.

How did the binding signal (PBM E-score (-0.5 to 0.5)) [2] turn out when “AGAGTACA (double strand) [8-mer AGAGTACA]” was run?
Its binding signal (PBM E-score (-0.5 to 0.5)) is 0.48.

With “TAACAATA (double strand) [8-mer TAACAATA]” as the sequence, how does the binding signal (PBM E-score (-0.5 to 0.5)) [3] read?
The binding signal (PBM E-score (-0.5 to 0.5)) was 0.464.

For “GCGCATCA (double strand) [8-mer GCGCATCA]”, which binding signal (PBM E-score (-0.5 to 0.5)) [6] is on record?
The binding signal (PBM E-score (-0.5 to 0.5)) was 0.47.

Which binding signal (PBM E-score (-0.5 to 0.5)) [8] does the source give for “ATCGCCAG (double strand) [8-mer ATCGCCAG]” here?
The binding signal (PBM E-score (-0.5 to 0.5)) was 0.473.

Which results are given for “ATGATAAG (double strand) [8-mer ATGATAAG]”?
binding signal (PBM E-score (-0.5 to 0.5)) [9]: 0.491; binding signal (PBM E-score (-0.5 to 0.5)) [7]: 0.457

Which binding signal (PBM E-score (-0.5 to 0.5)) [9] does the source give for “CCTTATCA (double strand) [8-mer CCTTATCA]” here?
Its binding signal (PBM E-score (-0.5 to 0.5)) is 0.496.

And the binding signal (PBM E-score (-0.5 to 0.5)) [7]?
Its binding signal (PBM E-score (-0.5 to 0.5)) is 0.469.

Which binding signal (PBM E-score (-0.5 to 0.5)) [5] does the source give for “CAACCACC (double strand) [8-mer CAACCACC]” here?
The binding signal (PBM E-score (-0.5 to 0.5)) was 0.483.

How did the binding signal (PBM E-score (-0.5 to 0.5)) [9] turn out when “TGATAACA (double strand) [8-mer TGATAACA]” was run?
The binding signal (PBM E-score (-0.5 to 0.5)) was 0.492.

What about the binding signal (PBM E-score (-0.5 to 0.5)) [7] of the same sequence?
The binding signal (PBM E-score (-0.5 to 0.5)) was 0.458.

For “GGTTGCTA (double strand) [8-mer GGTTGCTA]”, which binding signal (PBM E-score (-0.5 to 0.5)) [4] is on record?
The binding signal (PBM E-score (-0.5 to 0.5)) was 0.493.

With “ATCTTCAC (double strand) [8-mer ATCTTCAC]” as the sequence, how does the binding signal (PBM E-score (-0.5 to 0.5)) [8] read?
Its binding signal (PBM E-score (-0.5 to 0.5)) is 0.488.
